Several values for one entry are separate records, joined by “and”; a condition that tells them apart may be missing. Equal values may be shown once. Where a SMILES comes first, the peptide text is derived from it. [ ]: non-standard residue; d: D form. The star is where a group is joined. DOTA = O=C(O)CN1CCN(CC(=O)O)CCN(CC(=O)*)CCN(CC(=O)O)CC1; X1 = CC(=O)c1ccc(OCCC*)cc1B(O)O
What was measured:
[1] = in vivo; design: species or system mice; details: mouse, iv, total radioactivity
Experimental: (§1) All animal experiments were performed according to animal use protocols approved by the University of Alabama at Birmingham Institutional Animal Care and Use Committee (IACUC). Animals were housed under controlled conditions with a natural light-dark cycle. They were allowed to adapt to the housing environment for at least 48 h prior to study. Biodistribution and PET imaging studies with ^64Cu-HLys-DOTA and ^64Cu-AB1-HLys-DOTA were conducted in mice intramuscularly (IM) infected in the thigh muscle with SA and PBS as a control. Thirty-six male mice (25–30 g, 4–5 weeks old) infected with SA were used for animal studies. For each peptide, 4 mice were used for small animal PET imaging at 1, 4, and 24 h, and then sacrificed at 24 h for a post-PET biodistribution. Another set of 4 mice each was used for biodistribution studies at 1 and 4 h. A similar set of mice was used for blocking studies with ^64Cu-AB1-HLys-DOTA peptide. In order to check the specificity of ^64Cu-AB1-HLys-DOTA for Gram-positive bacteria, imaging and post-PET biodistribution studies were conducted in another set of mice (four) intramuscularly (IM) infected in the thigh muscle with PA and PBS.
(§2) Mice for infection studies were anesthetized prior to the intramuscular infection of SA or PA. Animals were immobilized with isoflurane. Bacteria cells concentrated in sterile PBS were injected into the thigh muscle and the site of injection pinched to minimize bleeding. SA or PA suspension (50 μL, 2.6–2.8 × 10^7 CFU per mouse) was intramuscularly injected into the right thigh muscle, and sterile PBS (50 μL) was injected into the left thigh muscle as control. Mice were placed back into the cages and allowed to recover with frequent monitoring to identify any sign of extreme distress. The infection was allowed to develop for 3–5 days before intravenous injection of the radiolabeled probe. The muscles on the left and right thighs were harvested, homogenized, and plated on mannitol agar plates or cultured in LB broth to verify the presence of infection. In addition, [^18F]FDG imaging was also performed in infected animal models as described in the PET imaging section below to further confirm the existence of infection in the right thigh and the absence thereof in the left thigh.
(§3) Small animal PET/CT imaging studies were conducted in SA-infected and PA-infected animal models. Each radiolabeled peptide, 3.3–3.7 MBq (90–100 μCi), was administrated via tail vein injection of prewarmed mice under anesthesia. The inflammatory response caused by the infection was confirmed by intravenous injection of [^18F]FDG, 3.7 MBq (100 μCi), into mice infected on the right thigh muscle with SA or PA and on the left with PBS as control. For this small animal PET imaging, 1 and 4 h post-injection static scans were collected. Following imaging studies, the mice were sacrificed for biodistribution. Mice were allowed to recover from anesthesia until the time of imaging. Mice were anesthetized with 2‐3% isoflurane/oxygen and imaged on the small animal PET/CT scanner. Static images were collected at 1, 4, and 24 h for 15, 20, and 30 min, respectively. PET images were coregistered with CT image for anatomical colocalization. Regions of interest (ROI) were manually drawn over organs of interest with CT anatomical guidelines, and the associated radioactivity was measured using Inveon Research Workstation software. Standard uptake values (SUV) were calculated as nCi/cc × animal weight/injected dose, and comparisons in pharmacokinetics of radiolabeled peptides were assessed.

[2] = test system: Staphylococcus aureus (SA) infected thigh muscle; experiment: in vivo; design: species or system mice; details: mouse
Experimental: as §1, §2, §3

[3] = in vivo; design: species or system mice; details: mouse, iv, total radioactivity; remark: listed apart in the source
Experimental: as §1, §2
For biodistribution studies, 3.3–3.7 MBq (90–100 μCi) of ^64Cu-HLys-DOTA or ^64Cu-AB1-HLys-DOTA was injected into prewarmed tail vein of the animals under anesthesia. Animals were euthanized at 1 and 4 h after radiotracer administration (n = 4 for each tracer at each time point). At 24 h after small animal PET imaging, the mice were also euthanized for a post-PET biodistribution. In a similar set of experiment, excess of the unlabeled peptide, 150 nmol, was coinjected with the radiolabeled peptides per mouse. The organs of interest were collected, weighed, and measured for radioactivity content using a gamma counter. The data were background-corrected and decay-corrected. The biodistribution data were expressed as percentage of injected radioactive dose per gram of tissue (%ID/g) for selected organs as the mean value of four mice.

[4] = test system: Staphylococcus aureus (SA), ATCC 6538; experiment: Bacterial cell uptake of 64Cu-labeled peptides in Staphylococcus aureus; format: cell-based; details: SA 0.9–1.3 × 10^7 CFU/mL in PBS pH 7.4, 37°C, 24 h, 0.925–0.999 MBq, gamma counter, triplicates, mean ± SD
Source text: (§4) All solvents and reagents were obtained from Sigma-Aldrich Company unless otherwise specified. […] Diethylenetriaminepentaacetic acid (DTPA) was purchased from Sigma (St. Louis, MO). 1,4,7,10-Tetraazacyclododecane-1,4,7,10-tetraacetic acid mono-N-hydroxysuccinimide ester (DOTA-NHS-ester) was purchased from Macrocyclics (Dallas, Texas). C18 SepPak cartridges were obtained from Waters Corporation (Milford. MA). Radiometric instant thin-layer chromatography measurements were accomplished using a TLC scanner (Bioscan AR-2000 Scanner). Reverse-phase chromatography analysis was performed on a C18 column (PA) with an infinity diode-array UV detector (Agilent, Lake Forest, CA) and a PMT/NaI remote radioactive detector (LabLogic Systems Ltd, Brandon, FL). Laura radiochromatography software (LabLogic Systems Ltd, Brandon, FL) was used to quantify chromatograms by integration. Radioactive samples were counted using a 2480 Wizard II automatic gamma counter (PerkinElmer, Downers Grove, IL). Imaging studies were done by using […] (Sofie BioSciences) [CT-80 Kvp, 5 min (approximately 100 μm), PET-Resolution ≤1 mm]. Acquired PET/CT images were analyzed with InveonTM Research Workplace (IRW) (Siemens). […] At each time point, the mixture was spun down, washed twice with PBS, and the final bacterial pellets were measured using a gamma counter to determine the percent of associated radiolabeled peptide. […]

[5] = test system: Pseudomonas aeruginosa (PA), ATCC 47085; experiment: Bacterial cell uptake of 64Cu-labeled peptides in Pseudomonas aeruginosa; format: cell-based; details: PA in PBS pH 7.4, 37°C, gamma counter, triplicates, mean ± SD
Source text: as §4

[6] = male, mean SUV in the infected muscle
[7] = male, mean SUV of the heart (blood retention)
[8] = male, mean SUV of the heart (dose retention)
[9] = male, uptake in the control muscle

SMILES: CC(=O)c1ccc(OCCCSC[C@H](NC(=O)CNC(=O)[C@@H](CCCNC(=N)N)NC(=O)[C@@H](CC(N)=O)NC(=O)[C@@H](CCCNC(=N)N)NC(=O)[C@@H](Cc2c[nH]c3ccccc23)NC(=O)[C@@H](C)NC(=O)[C@H](NC(=O)[C@@H](Cc2c[nH]c3ccccc23)NC(=O)[C@@H](Cc2ccc(O)cc2)NC(=O)[C@@H](CCCNC(=N)N)NC(=O)CN2CCN(CC(=O)O)CCN(CC(=O)O)CCN(CC(=O)O)CC2)C(C)C)C(N)=O)cc1B(O)O [^64Cu-AB1-HLys-DOTA, metal not drawn] ({DOTA}-[dR][dY][dW][dV][dA][dW][dR][dN][dR]GC(X1)-NH2)
- SUV at 1 h [1, 6]: 0.7 ± 0.08 SUV
- SUV at 4 h [1, 6]: 0.49 ± 0.04 SUV
- SUV at 24 h [1, 6]: 0.31 ± 0.01 SUV
- SUV at 1 h [1, 7]: 0.65 ± 0.08 SUV
- SUV at 24 h [1, 8]: 0.26 ± 0.04 SUV
- SUV at 1 h [1]: 0.28 ± 0.1 SUV
- SUV at 4 h [1]: 0.19 ± 0.1 SUV
- fold increase in accumulation (SUV) vs. ^64Cu-HLys-DOTA at the infection [2]: 2.4-4 fold
- tissue uptake at 1 h [3, 9]: 2.5 ± 0.5 %ID/g
- tissue uptake at 4 h [3, 9]: 1.1 ± 0.4 %ID/g
- tissue uptake at 24 h [3, 9]: 0.8 ± 0.1 %ID/g
- tissue uptake at 24 h [3]: 0.49 ± 0.11 %ID/g

SMILES: CC(C)[C@@H](NC(=O)[C@@H](Cc1c[nH]c2ccccc12)NC(=O)[C@@H](Cc1ccc(O)cc1)NC(=O)[C@@H](CCCNC(=N)N)NC(=O)CN1CCN(CC(=O)O)CCN(CC(=O)O)CCN(CC(=O)O)CC1)C(=O)N[C@H](C)C(=O)N[C@H](Cc1c[nH]c2ccccc12)C(=O)N[C@H](CCCNC(=N)N)C(=O)N[C@H](CC(N)=O)C(=O)N[C@H](CCCNC(=N)N)C(=O)NCC(N)=O [^64Cu-HLys-DOTA, metal not drawn] ({DOTA}-[dR][dY][dW][dV][dA][dW][dR][dN][dR]G-NH2; N-terminus and C-terminus assumed)
- SUV at 1 h [1, 6]: 0.17 ± 0.06 SUV
- SUV at 4 h [1, 6]: 0.16 ± 0.02 SUV
- SUV at 24 h [1, 6]: 0.13 ± 0.01 SUV
- SUV at 1 h [1, 7]: 0.25 ± 0.05 SUV
- SUV at 24 h [1, 8]: 0.21 ± 0.04 SUV
- bacteria cell uptake (percent of associated radiolabeled peptide) [4]: 39.12 ± 3.27% and 39.1 ± 3.3%
- tissue uptake at 1 h [3, 9]: 0.6 ± 0.1 %ID/g
- tissue uptake at 4 h [3, 9]: 0.4 ± 0.1 %ID/g
- binding to PA (cell uptake) ([5]; 5 min after incubation): 1.9 ± 0.4%
- binding to PA (cell uptake) ([5]; 24 h after incubation): 5.2 ± 0.3%
